Test results: article PMC4981545 (Cell reports, 2016)

Tests used:
Assay in all cases: pull-down
[1] = target: GST-tagged HPV-18 E2 (18E2), immobilized (HPV-18, UniProt P06790 1-365)
[2] = target: T1, GST-tagged BPV-1 E2 (BE2), immobilized (bovine papillomavirus type 1 (BPV-1), UniProt P03122 1-410)
T1 sequence: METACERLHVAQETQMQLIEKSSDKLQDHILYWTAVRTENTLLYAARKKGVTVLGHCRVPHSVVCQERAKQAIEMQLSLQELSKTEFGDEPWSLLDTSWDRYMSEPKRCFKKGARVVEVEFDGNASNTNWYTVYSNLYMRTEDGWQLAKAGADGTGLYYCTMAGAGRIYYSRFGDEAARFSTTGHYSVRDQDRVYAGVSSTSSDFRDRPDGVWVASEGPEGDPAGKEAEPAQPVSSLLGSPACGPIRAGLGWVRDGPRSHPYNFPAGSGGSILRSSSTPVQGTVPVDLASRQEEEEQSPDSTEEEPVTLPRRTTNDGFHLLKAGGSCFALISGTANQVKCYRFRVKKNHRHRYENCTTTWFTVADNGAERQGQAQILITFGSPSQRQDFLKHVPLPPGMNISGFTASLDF

[3] = target: GST-tagged HPV-11 E2 (11E2), immobilized (HPV-11, UniProt P04015 1-367)
GST-tagged HPV-11 E2 (11E2), immobilized, sequence (P04015 whole entry): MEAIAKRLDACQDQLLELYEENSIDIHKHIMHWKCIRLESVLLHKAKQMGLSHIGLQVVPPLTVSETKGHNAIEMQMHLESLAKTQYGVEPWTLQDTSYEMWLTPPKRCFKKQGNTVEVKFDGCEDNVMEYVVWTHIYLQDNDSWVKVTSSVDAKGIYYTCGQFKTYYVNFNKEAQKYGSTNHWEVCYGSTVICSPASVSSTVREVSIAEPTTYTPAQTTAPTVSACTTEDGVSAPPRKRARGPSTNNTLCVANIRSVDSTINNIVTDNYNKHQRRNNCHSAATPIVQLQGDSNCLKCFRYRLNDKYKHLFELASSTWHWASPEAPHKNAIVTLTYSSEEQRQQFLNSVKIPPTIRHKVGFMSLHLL

[4] = target: GST-tagged HPV-16 E2 (16E2), immobilized (HPV-16, UniProt P03120 1-365)
GST-tagged HPV-16 E2 (16E2), immobilized, sequence (P03120 whole entry): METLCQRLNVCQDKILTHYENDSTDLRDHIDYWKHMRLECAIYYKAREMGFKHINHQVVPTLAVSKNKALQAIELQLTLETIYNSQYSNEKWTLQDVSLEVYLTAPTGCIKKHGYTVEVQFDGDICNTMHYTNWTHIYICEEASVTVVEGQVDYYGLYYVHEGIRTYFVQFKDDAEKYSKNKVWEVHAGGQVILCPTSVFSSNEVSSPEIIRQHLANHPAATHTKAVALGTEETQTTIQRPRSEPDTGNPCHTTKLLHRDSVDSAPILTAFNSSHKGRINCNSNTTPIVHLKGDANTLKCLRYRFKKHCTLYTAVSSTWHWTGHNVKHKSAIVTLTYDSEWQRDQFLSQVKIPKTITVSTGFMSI

[5] = target: Sf9-PDID of BRD4 with S498 substituted to alanine (human, UniProt O60885 287-530, S498 to alanine)
[6] = target: Sf9-PDID of BRD4 with S488 substituted to alanine (human, UniProt O60885 287-530, S488 to alanine)
[7] = target: Sf9-PDID of BRD4 with S492 substituted to alanine (human, UniProt O60885 287-530, S492 to alanine)
[8] = target: Sf9-PDID of BRD4 with S494 substituted to alanine (human, UniProt O60885 287-530, S494 to alanine)
[9] = target: Sf9-PDID of BRD4 with S499 substituted to alanine (human, UniProt O60885 287-530, S499 to alanine)

Measured: binding result

GST-tagged HPV-18 E2 (18E2), immobilized, sequence (P06790 whole entry): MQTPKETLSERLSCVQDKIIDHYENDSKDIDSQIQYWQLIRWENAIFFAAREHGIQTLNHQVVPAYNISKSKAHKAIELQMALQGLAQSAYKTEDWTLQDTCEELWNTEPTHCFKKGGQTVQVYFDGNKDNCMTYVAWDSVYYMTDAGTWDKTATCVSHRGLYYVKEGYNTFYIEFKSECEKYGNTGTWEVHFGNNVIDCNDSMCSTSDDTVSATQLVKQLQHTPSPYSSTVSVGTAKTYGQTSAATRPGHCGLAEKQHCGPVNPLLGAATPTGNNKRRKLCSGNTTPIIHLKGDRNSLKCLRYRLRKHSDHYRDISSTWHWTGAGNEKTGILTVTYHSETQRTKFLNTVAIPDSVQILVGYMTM

B1: Sf9-BID of BRD4 (fragment 6) (domain or fragment, human, UniProt O60885 524-579, looked up)
chain: QLAALSQPQQNKPKKKEKDKKEKKKEKHKRKEEVEENKKSKAKEPPPKKTKKNNSS
binds: [1] | [2] | [3] | [4]

B2: Bac-expressed FLAG-tagged BID of BRD4 (aa 524–579, fragment c) (domain or fragment, human, UniProt O60885 524-579, looked up)
chain: B1 chain
binds: [1] | [2] | [3] | [4]

B3: GST-BID of BRD4 (domain or fragment, human, UniProt O60885 524-579, looked up)
chain: B1 chain
binds: [5] | [6] | [7] | [8] | [9]
